Target: T1, dopamine D5 receptor-GFP (D5-GFP) (Aequoria victoria, UniProt P21918 1-477; P42212 1-238 = GFP)
T1 construct: also called D5 dopamine receptor; not shown: vector-encoded residues between the KpnI site and the start codon of GFP
Experiment: NLS co-trafficking assay, co-transfected HEK cells, 48 h, confocal microscopy

- binding result: no binding
B1: Dopamine D1 receptor containing a NLS (D1-NLS) (receptor)
chain: MRTLNTSAMDGTGLVVERDFSVRILTACFLSLLILSTLLGNTLVCAAVIRFRHLRSKVTNFFVISLAVSDLLVAVLVMPWKAVAEIAGFWPFGSFCNIWVAFDIMCSTASILNLCVISVDRYWAISSPFRYERKMTPKAAFILISVAWTLSVLISFIPVQLSWHKAKPTSPSDGNATSLAETIDNCDSSLSRTYAISSSVISFYIPVAIMIVTYTRIYRIAQKQIRRIAALERAAVHAKNCQTTTGNGKPVECSQPESSFKMSFKRETKVLKTLSVIMGVFVCCWLPFFILNCILPFCGSGETQPFCIDSNTFDVFVWFGWANSSLNPIIYAFNAKKFKRFSTLLGCYRLCPATNNAIETVSINNNGAAMFSSHHEPRGSISKECNLVYLIPHAVGSSEDLKKEEAAGIARPLEKLSPALSVILDYDTDVSLEKIQPITQNGQHPT
notes: No fluorescent tag; whether that entry is the full-length receptor cannot be seen from the text; The vector of the untagged D1-NLS is not described; also called D1 receptor with the NLS
